The target in the test is insulin-degrading enzyme (recombinant human IDE) (human, UniProt P14735 1-1019).

Square brackets hold non-standard residues; d marks the D form. Ends that are not written are not given here.

B1: retro-inverso peptide hydroxamate Xaa-Arg-Tyr with Phe at P1' (peptide)
peptide: Phe-[dR]-[dY]
modifications: not fully specified (residue 1, N-terminus); also: retro-inverso (reversed backbone)
As to B1, the Ki (as a rule, a measure of affinity in units of concentration, obtained from inhibition or displacement) was 20 µM.
